According to patent US20250368745A1 (published 2025):

T1: human IL-18BP (human, UniProt O95998 31-194)
T1 construct: UniProt printed as 095998; also called hIL-18BP
T1 sequence: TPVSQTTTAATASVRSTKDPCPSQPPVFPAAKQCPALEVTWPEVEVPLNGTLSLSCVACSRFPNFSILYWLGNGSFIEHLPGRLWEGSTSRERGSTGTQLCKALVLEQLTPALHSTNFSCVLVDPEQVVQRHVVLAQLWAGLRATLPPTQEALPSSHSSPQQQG

T2: cynomolgus IL-18BP (cynomolgus monkey)
T2 construct: also called cyno IL-18BP; cyIL-18BP
T2 chain: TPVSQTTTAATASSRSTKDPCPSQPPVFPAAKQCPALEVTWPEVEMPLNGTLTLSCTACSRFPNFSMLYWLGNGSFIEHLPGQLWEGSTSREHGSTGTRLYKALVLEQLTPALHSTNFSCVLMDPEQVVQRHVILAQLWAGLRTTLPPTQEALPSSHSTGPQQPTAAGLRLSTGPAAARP


Tests used:
human IL-18BP = molecular target: T1, human IL-18BP; test: BLI, apparent KD
cynomolgus IL-18BP = molecular target: T2, cynomolgus IL-18BP; test: BLI, apparent KD

Binder | Kd (human IL-18BP) [nM] | Kd (cynomolgus IL-18BP) [nM]
SA301a HC-V100aT (antibody, name in Kabat numbering, V domains shown, IgG1 kappa) VH: QVQLQESGPGLVKPSQTLSLTCTVSGYSITSDYNSHWIRQPPGKGLEWIGYIHYSGSTNYNPSLKSRVTISRDTSKNQFSLKLSSVTAADTAVYYCARNYGSIYTNYFDYWGQGTLVTVSS VL: EIVLTQSPATLSLSPGERATLSCSASSSVSYMYWYQQKPGQAPRPLIYRTSNLASGIPARFSGSGSGTDFTLTISSLEPEDFAVYYCQQYHSYPTFGGGTKVEIK | 0.27 | 0.06
SA301a HC-V100aG (antibody, name in Kabat numbering, V domains shown, IgG1 kappa) VH: QVQLQESGPGLVKPSQTLSLTCTVSGYSITSDYNSHWIRQPPGKGLEWIGYIHYSGSTNYNPSLKSRVTISRDTSKNQFSLKLSSVTAADTAVYYCARNYGSIYGNYFDYWGQGTLVTVSS VL: EIVLTQSPATLSLSPGERATLSCSASSSVSYMYWYQQKPGQAPRPLIYRTSNLASGIPARFSGSGSGTDFTLTISSLEPEDFAVYYCQQYHSYPTFGGGTKVEIK | 0.55 | 0.92
SA301a HC-I99H (antibody, name in Kabat numbering, V domains shown, IgG1 kappa) VH: QVQLQESGPGLVKPSQTLSLTCTVSGYSITSDYNSHWIRQPPGKGLEWIGYIHYSGSTNYNPSLKSRVTISRDTSKNQFSLKLSSVTAADTAVYYCARNYGSHYVNYFDYWGQGTLVTVSS VL: EIVLTQSPATLSLSPGERATLSCSASSSVSYMYWYQQKPGQAPRPLIYRTSNLASGIPARFSGSGSGTDFTLTISSLEPEDFAVYYCQQYHSYPTFGGGTKVEIK | 0.61 | 0.83
SA301a HC-V100aE (antibody, name in Kabat numbering, V domains shown, IgG1 kappa) VH: QVQLQESGPGLVKPSQTLSLTCTVSGYSITSDYNSHWIRQPPGKGLEWIGYIHYSGSTNYNPSLKSRVTISRDTSKNQFSLKLSSVTAADTAVYYCARNYGSIYENYFDYWGQGTLVTVSS VL: EIVLTQSPATLSLSPGERATLSCSASSSVSYMYWYQQKPGQAPRPLIYRTSNLASGIPARFSGSGSGTDFTLTISSLEPEDFAVYYCQQYHSYPTFGGGTKVEIK | 0.51 | 0.22
SA301a HC-I99S (antibody, name in Kabat numbering, V domains shown, IgG1 kappa) VH: QVQLQESGPGLVKPSQTLSLTCTVSGYSITSDYNSHWIRQPPGKGLEWIGYIHYSGSTNYNPSLKSRVTISRDTSKNQFSLKLSSVTAADTAVYYCARNYGSSYVNYFDYWGQGTLVTVSS VL: EIVLTQSPATLSLSPGERATLSCSASSSVSYMYWYQQKPGQAPRPLIYRTSNLASGIPARFSGSGSGTDFTLTISSLEPEDFAVYYCQQYHSYPTFGGGTKVEIK | 0.56 | 0.53
SA301a HC-V100aL (antibody, name in Kabat numbering, V domains shown, IgG1 kappa) VH: QVQLQESGPGLVKPSQTLSLTCTVSGYSITSDYNSHWIRQPPGKGLEWIGYIHYSGSTNYNPSLKSRVTISRDTSKNQFSLKLSSVTAADTAVYYCARNYGSIYLNYFDYWGQGTLVTVSS VL: EIVLTQSPATLSLSPGERATLSCSASSSVSYMYWYQQKPGQAPRPLIYRTSNLASGIPARFSGSGSGTDFTLTISSLEPEDFAVYYCQQYHSYPTFGGGTKVEIK | 2.54 | 0.81
SA301a HC-I99Q (antibody, name in Kabat numbering, V domains shown, IgG1 kappa) VH: QVQLQESGPGLVKPSQTLSLTCTVSGYSITSDYNSHWIRQPPGKGLEWIGYIHYSGSTNYNPSLKSRVTISRDTSKNQFSLKLSSVTAADTAVYYCARNYGSQYVNYFDYWGQGTLVTVSS VL: EIVLTQSPATLSLSPGERATLSCSASSSVSYMYWYQQKPGQAPRPLIYRTSNLASGIPARFSGSGSGTDFTLTISSLEPEDFAVYYCQQYHSYPTFGGGTKVEIK | 0.25 | 0.44
SA301a HC-V100aP (antibody, name in Kabat numbering, V domains shown, IgG1 kappa) VH: QVQLQESGPGLVKPSQTLSLTCTVSGYSITSDYNSHWIRQPPGKGLEWIGYIHYSGSTNYNPSLKSRVTISRDTSKNQFSLKLSSVTAADTAVYYCARNYGSIYPNYFDYWGQGTLVTVSS VL: EIVLTQSPATLSLSPGERATLSCSASSSVSYMYWYQQKPGQAPRPLIYRTSNLASGIPARFSGSGSGTDFTLTISSLEPEDFAVYYCQQYHSYPTFGGGTKVEIK | 0.49 | 0.15
SA301a HC-V100aQ (antibody, name in Kabat numbering, V domains shown, IgG1 kappa) VH: QVQLQESGPGLVKPSQTLSLTCTVSGYSITSDYNSHWIRQPPGKGLEWIGYIHYSGSTNYNPSLKSRVTISRDTSKNQFSLKLSSVTAADTAVYYCARNYGSIYQNYFDYWGQGTLVTVSS VL: EIVLTQSPATLSLSPGERATLSCSASSSVSYMYWYQQKPGQAPRPLIYRTSNLASGIPARFSGSGSGTDFTLTISSLEPEDFAVYYCQQYHSYPTFGGGTKVEIK | 0.45 | 0.1
SA301a HC-N100bS (antibody, name in Kabat numbering, V domains shown, IgG1 kappa) VH: QVQLQESGPGLVKPSQTLSLTCTVSGYSITSDYNSHWIRQPPGKGLEWIGYIHYSGSTNYNPSLKSRVTISRDTSKNQFSLKLSSVTAADTAVYYCARNYGSIYVSYFDYWGQGTLVTVSS VL: EIVLTQSPATLSLSPGERATLSCSASSSVSYMYWYQQKPGQAPRPLIYRTSNLASGIPARFSGSGSGTDFTLTISSLEPEDFAVYYCQQYHSYPTFGGGTKVEIK | 0.49 | 0.09
SA301a HC-V100aM (antibody, name in Kabat numbering, V domains shown, IgG1 kappa) VH: QVQLQESGPGLVKPSQTLSLTCTVSGYSITSDYNSHWIRQPPGKGLEWIGYIHYSGSTNYNPSLKSRVTISRDTSKNQFSLKLSSVTAADTAVYYCARNYGSIYMNYFDYWGQGTLVTVSS VL: EIVLTQSPATLSLSPGERATLSCSASSSVSYMYWYQQKPGQAPRPLIYRTSNLASGIPARFSGSGSGTDFTLTISSLEPEDFAVYYCQQYHSYPTFGGGTKVEIK | 0.8 | 0.22
SA301a HC-I99M (antibody, name in Kabat numbering, V domains shown, IgG1 kappa) VH: QVQLQESGPGLVKPSQTLSLTCTVSGYSITSDYNSHWIRQPPGKGLEWIGYIHYSGSTNYNPSLKSRVTISRDTSKNQFSLKLSSVTAADTAVYYCARNYGSMYVNYFDYWGQGTLVTVSS VL: EIVLTQSPATLSLSPGERATLSCSASSSVSYMYWYQQKPGQAPRPLIYRTSNLASGIPARFSGSGSGTDFTLTISSLEPEDFAVYYCQQYHSYPTFGGGTKVEIK | 0.21 | 0.37
SA301a HC-N100bH (antibody, name in Kabat numbering, V domains shown, IgG1 kappa) VH: QVQLQESGPGLVKPSQTLSLTCTVSGYSITSDYNSHWIRQPPGKGLEWIGYIHYSGSTNYNPSLKSRVTISRDTSKNQFSLKLSSVTAADTAVYYCARNYGSIYVHYFDYWGQGTLVTVSS VL: EIVLTQSPATLSLSPGERATLSCSASSSVSYMYWYQQKPGQAPRPLIYRTSNLASGIPARFSGSGSGTDFTLTISSLEPEDFAVYYCQQYHSYPTFGGGTKVEIK | 0.69 | 1.03
SA301a HC-N100bD (antibody, name in Kabat numbering, V domains shown, IgG1 kappa) VH: QVQLQESGPGLVKPSQTLSLTCTVSGYSITSDYNSHWIRQPPGKGLEWIGYIHYSGSTNYNPSLKSRVTISRDTSKNQFSLKLSSVTAADTAVYYCARNYGSIYVDYFDYWGQGTLVTVSS VL: EIVLTQSPATLSLSPGERATLSCSASSSVSYMYWYQQKPGQAPRPLIYRTSNLASGIPARFSGSGSGTDFTLTISSLEPEDFAVYYCQQYHSYPTFGGGTKVEIK | 2.3 | 0.96
SA301a HC-N100bV (antibody, name in Kabat numbering, V domains shown, IgG1 kappa) VH: QVQLQESGPGLVKPSQTLSLTCTVSGYSITSDYNSHWIRQPPGKGLEWIGYIHYSGSTNYNPSLKSRVTISRDTSKNQFSLKLSSVTAADTAVYYCARNYGSIYVVYFDYWGQGTLVTVSS VL: EIVLTQSPATLSLSPGERATLSCSASSSVSYMYWYQQKPGQAPRPLIYRTSNLASGIPARFSGSGSGTDFTLTISSLEPEDFAVYYCQQYHSYPTFGGGTKVEIK | 2.16 | 1.16
SA301a HC-I99F (antibody, name in Kabat numbering, V domains shown, IgG1 kappa) VH: QVQLQESGPGLVKPSQTLSLTCTVSGYSITSDYNSHWIRQPPGKGLEWIGYIHYSGSTNYNPSLKSRVTISRDTSKNQFSLKLSSVTAADTAVYYCARNYGSFYVNYFDYWGQGTLVTVSS VL: EIVLTQSPATLSLSPGERATLSCSASSSVSYMYWYQQKPGQAPRPLIYRTSNLASGIPARFSGSGSGTDFTLTISSLEPEDFAVYYCQQYHSYPTFGGGTKVEIK | 0.64 | 0.97
SA301a HC-I99G (antibody, name in Kabat numbering, V domains shown, IgG1 kappa) VH: QVQLQESGPGLVKPSQTLSLTCTVSGYSITSDYNSHWIRQPPGKGLEWIGYIHYSGSTNYNPSLKSRVTISRDTSKNQFSLKLSSVTAADTAVYYCARNYGSGYVNYFDYWGQGTLVTVSS VL: EIVLTQSPATLSLSPGERATLSCSASSSVSYMYWYQQKPGQAPRPLIYRTSNLASGIPARFSGSGSGTDFTLTISSLEPEDFAVYYCQQYHSYPTFGGGTKVEIK | 1.04 | 0.67
SA301a HC-I99N (antibody, name in Kabat numbering, V domains shown, IgG1 kappa) VH: QVQLQESGPGLVKPSQTLSLTCTVSGYSITSDYNSHWIRQPPGKGLEWIGYIHYSGSTNYNPSLKSRVTISRDTSKNQFSLKLSSVTAADTAVYYCARNYGSNYVNYFDYWGQGTLVTVSS VL: EIVLTQSPATLSLSPGERATLSCSASSSVSYMYWYQQKPGQAPRPLIYRTSNLASGIPARFSGSGSGTDFTLTISSLEPEDFAVYYCQQYHSYPTFGGGTKVEIK | 0.55 | 0.66
SA301a HC-I99V (antibody, name in Kabat numbering, V domains shown, IgG1 kappa) VH: QVQLQESGPGLVKPSQTLSLTCTVSGYSITSDYNSHWIRQPPGKGLEWIGYIHYSGSTNYNPSLKSRVTISRDTSKNQFSLKLSSVTAADTAVYYCARNYGSVYVNYFDYWGQGTLVTVSS VL: EIVLTQSPATLSLSPGERATLSCSASSSVSYMYWYQQKPGQAPRPLIYRTSNLASGIPARFSGSGSGTDFTLTISSLEPEDFAVYYCQQYHSYPTFGGGTKVEIK | 0.05 | 0.33
SA301a HC-I99R (antibody, name in Kabat numbering, V domains shown, IgG1 kappa) VH: QVQLQESGPGLVKPSQTLSLTCTVSGYSITSDYNSHWIRQPPGKGLEWIGYIHYSGSTNYNPSLKSRVTISRDTSKNQFSLKLSSVTAADTAVYYCARNYGSRYVNYFDYWGQGTLVTVSS VL: EIVLTQSPATLSLSPGERATLSCSASSSVSYMYWYQQKPGQAPRPLIYRTSNLASGIPARFSGSGSGTDFTLTISSLEPEDFAVYYCQQYHSYPTFGGGTKVEIK | 0.46 | 0.69
